According to patent publication US20050070694A1 (Eli Lilly, published 2005):

Assays:
murine TNFSF13b = molecular target: T1, murine TNFSF13b (mouse, UniProt Q9WU72 127-309); experiment: sandwich ELISA with 4A5-3.1.1-B4 as both capture and detecting mAb
T1 construct: Used as supernatants of CHO cells or 293 transfectants expressing murine TNFSF13b, and as purified protein; also called Mouse TNFSF13b; mouse TNFSF13b parent molecule

[1] = molecular target: T2, recombinant soluble human TNFSF13b (hTNFSF13b) (human, UniProt Q9Y275 134-285); experiment: BIAcore 2000 SPR at 25 C; antibody captured by anti-human IgG Fc, hTNFSF13b as analyte from 50 nM in 2-fold dilutions; Langmuir 1:1 model
T2 construct: Bought from RDI (Research Diagnostics Inc.) and described as amino acids 133-285; The printed soluble portion has 152 residues, one fewer than 133-285 implies; also called huTNFSF13b; BLyS

[2] = molecular target: Chimera D (human TNFSF13b L53V, K55R, E56Q) (human, UniProt Q9Y275 134-285); experiment: cell-based or functional assay
[3] = molecular target: Chimera E (human TNFSF13b E105K) (human, UniProt Q9Y275 134-285); experiment: cell-based or functional assay
[4] = molecular target: Chimera A (human TNFSF13b L139R, D140N) (human, UniProt Q9Y275 134-285); experiment: cell-based or functional assay
[5] = molecular target: Chimera B (human TNFSF13b K71P, T72I, Y73F) (human, UniProt Q9Y275 134-285); experiment: cell-based or functional assay
[6] = molecular target: T2, recombinant soluble human TNFSF13b …; experiment: cell-based or functional assay

T2 sequence (Q9Y275 134-285): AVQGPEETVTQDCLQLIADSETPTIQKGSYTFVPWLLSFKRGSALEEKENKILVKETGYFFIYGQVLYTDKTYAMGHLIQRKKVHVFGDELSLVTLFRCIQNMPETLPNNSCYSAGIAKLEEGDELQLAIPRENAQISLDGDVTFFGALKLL
Chimera B (human TNFSF13b K71P, T72I, Y73F), sequence (Q9Y275 134-285, stated change not applied): as the sequence (Q9Y275 134-285) above
Chimera A (human TNFSF13b L139R, D140N), sequence (Q9Y275 134-285, stated change not applied): as the sequence (Q9Y275 134-285) above
Chimera D (human TNFSF13b L53V, K55R, E56Q), sequence (Q9Y275 134-285, stated change not applied): as the sequence (Q9Y275 134-285) above
Chimera E (human TNFSF13b E105K), sequence (Q9Y275 134-285, stated change not applied): as the sequence (Q9Y275 134-285) above
T1 sequence (Q9WU72 127-309 limits assumed): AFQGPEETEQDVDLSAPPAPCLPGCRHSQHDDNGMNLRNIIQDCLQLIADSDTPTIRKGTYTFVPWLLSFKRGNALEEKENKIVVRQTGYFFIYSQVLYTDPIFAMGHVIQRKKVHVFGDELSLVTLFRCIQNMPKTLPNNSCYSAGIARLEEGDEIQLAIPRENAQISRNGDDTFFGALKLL

B1: human antibody 4A5-3.1.1-B4 (antibody, V domains shown)
VH: QVQLQQWGAGLLKPSETLSLTCAVYGGSFSGYYWSWIRQPPGKGLEWIGEINHSGSTNYNPSLKSRVTISVDTSKNQFSLKLSSVTAADTAVYYCARGYYDILTGYYYYFDYWGQGTLVTVSS
VL: EIVLTQSPATLSLSPGERATLSCRASQSVSRYLAWYQQKPGQAPRLLIYDASNRATGIPARFSGSGSGTDSTLTISSLEPEDFAVYYCQQRSNWPRTFGQGTKVEIKR
notes: Hybridoma-derived human monoclonal antibody from HuMAb mice, with a human kappa light chain; also called 4A5 mAb; 4A5-3.1.11-B4
binding result (murine TNFSF13b): no binding
Kd [1]: 0.038 nM
neutralization of proliferation, 293 supernatants, 6 ug/ml of 4A5-3.1.1-B4 [2]: 100%
neutralization of proliferation, 293 supernatants, 6 ug/ml of 4A5-3.1.1-B4 [3]: 100%
neutralization of proliferation, 11 ng/ml purified TNFSF13b, 1 ug/ml of 4A5-3.1.1-B4 [4]: 100%
neutralization of proliferation, 293 supernatants, 6 ug/ml of 4A5-3.1.1-B4 [4]: 100%
neutralization of proliferation, 11 ng/ml purified TNFSF13b, 1 ug/ml of 4A5-3.1.1-B4 [5]: 88%
neutralization of proliferation, 293 supernatants, 6 ug/ml of 4A5-3.1.1-B4 [5]: 100%
neutralization of proliferation, 11 ng/ml purified TNFSF13b, 1 ug/ml of 4A5-3.1.1-B4 [6]: 100%
neutralization of proliferation, 293 supernatants, 6 ug/ml of 4A5-3.1.1-B4 [6]: 100%
